Test results taken from the supplement of paper PMC7877785.
± gives the uncertainty stated by the source.

Assay: self-splicing fitness, log relative to wild type (ln ratio); higher = more splicing; Tetrahymena group I intron in knt gene, E. coli kanamycin selection, DiMSum; sequences stand for … in CUCUCU…GGAGGGAAAAGUUAUCAGGCAUGCACCUGGUAGCUAGUCUUUAAACCAAUAGAUUGCAUCGGUUUAAAAGGCAAGACCGUCAAAUUGCGGGAAAGGGGUCAACAGCCGUUCAGUACCAAGUCUCAGGGGAAACUUUGAGAUGGCCUUGCAAAGGGUAUGGUAAUAAGCUGACGGACAUGGUCCUAACCACGCAGCCAAGUCCUAAGUCAACAGAUCUUCUGUUGAUAUGGAUGCAGUUCACAGACUAAAUGUCGGUCGGGGAAGAUGUAUUCUUCUCAUAAGAUAUAGUCGGACCUCUCCUUAAUGGGAGCUAGCGGAUGAAGUGAUGCAACACUGGAGCCGCUGGGAACUAAUUUGUAUGCGAAAGUAUAUUGAUUAGUUUUGGAGUACUCGUGGUCG
Summary of the method: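 DiMSum derived fitness as the error-weighted combination of fold changes across replicates, kanamycin versus no kanamycin, normalised to wild type. E. coli BL21(DE3) held the library, which randomised all eight P1ex-region intron nucleotides within the knt kanamycin-resistance gene on pET-22b(+). Six replicate transformations grew overnight at 37°C or 30°C on LB agar with or without 25 μg/mL kanamycin, also containing 100 μg/mL carbenicillin, 50 μM IPTG and 0.2% rhamnose, and pooled colonies were amplicon-sequenced on an Illumina HiSeq 2500.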

Sequence | self-splicing fitness (ln) (30 °C) | self-splicing fitness (ln) (37 °C)
GGCAAGCAAUAUUACGAAUU | -0.859 ± 0.074 | 0.0425 ± 0.081
GGCAAGCAAUAUUACGACUG | -1.02 ± 0.12 | -0.532 ± 0.17
GGCAAGCAAUAUUACGAGAC | -0.681 ± 0.14 | -1.2 ± 0.23
GGCAAGCAAUAUUACGAGGA | -3.3 ± 0.42 | -1.77 ± 0.24
GGCAAGCAAUAUUACGAUGA | -1.07 ± 0.11 | -0.765 ± 0.13
GGCAAGCAAUAUUACGAUGU | -2.19 ± 0.12 | -1.44 ± 0.13
GGCAAGCAAUAUUACGCACG | -1 ± 0.13 | 0.171 ± 0.24
GGCAAGCAAUAUUACGCCAA | -1.93 ± 0.24 | -1.36 ± 0.21
GGCAAGCAAUAUUACGCGUC | -3.66 ± 0.34 | -2.74 ± 0.36
GGCAAGCAAUAUUACGCGUG | -1.95 ± 0.088 | -2.11 ± 0.095
GGCAAGCAAUAUUACGCUAU | -0.0842 ± 0.13 | -1.13 ± 0.11
GGCAAGCAAUAUUACGGAGA | -2.37 ± 0.24 | -2.22 ± 0.27
GGCAAGCAAUAUUACGGGCA | -0.0236 ± 0.092 | 0.138 ± 0.1
GGCAAGCAAUAUUACGGGUU | -0.709 ± 0.077 | -0.607 ± 0.08
GGCAAGCAAUAUUACGGUCC | -2.95 ± 0.15 | -2.1 ± 0.17
GGCAAGCAAUAUUACGGUGU | -1.2 ± 0.059 | -0.54 ± 0.09
GGCAAGCAAUAUUACGUAAU | 0.0253 ± 0.063 | 0.562 ± 0.074
GGCAAGCAAUAUUACGUAGG | -1.09 ± 0.061 | -0.937 ± 0.088
GGCAAGCAAUAUUACGUAUG | -2 ± 0.092 | -1.74 ± 0.1

Sequence | self-splicing fitness (ln) (30 °C) | self-splicing fitness (ln) (37 °C)
GGCAAGCAAUAUUACGUCAU | -1.32 ± 0.072 | -0.111 ± 0.083
GGCAAGCAAUAUUACGUGGA | -1.28 ± 0.077 | -0.277 ± 0.073
GGCAAGCAAUAUUACGUUAG | -3.77 ± 0.2 | -2.57 ± 0.19
GGCCAGCAAUAUUACGAACU | -0.359 ± 0.07 | -0.12 ± 0.079
GGCCAGCAAUAUUACGACCU | -1.96 ± 0.19 | -0.345 ± 0.22
GGCCAGCAAUAUUACGACGC | -1.02 ± 0.15 | 0.369 ± 0.17
GGCCAGCAAUAUUACGAGAC | -3.29 ± 0.25 | -2.77 ± 0.28
GGCCAGCAAUAUUACGAGCA | -0.969 ± 0.077 | -0.145 ± 0.084
GGCCAGCAAUAUUACGAUAC | -2.04 ± 0.11 | -0.501 ± 0.13
GGCCAGCAAUAUUACGAUGU | -2.4 ± 0.092 | -1.92 ± 0.12
GGCCAGCAAUAUUACGCAAG | -3.48 ± 0.25 | -3.15 ± 0.43
GGCCAGCAAUAUUACGCAUG | -2.27 ± 0.12 | -1.3 ± 0.14
GGCCAGCAAUAUUACGCGCU | – | -1.76 ± 0.39
GGCCAGCAAUAUUACGGAAC | -0.685 ± 0.1 | -0.981 ± 0.14
GGCCAGCAAUAUUACGGACG | -0.421 ± 0.072 | 0.71 ± 0.1
GGCCAGCAAUAUUACGGAUU | -0.639 ± 0.056 | -0.524 ± 0.063
GGCCAGCAAUAUUACGUAUU | -2.14 ± 0.11 | -0.199 ± 0.087
GGCCAGCAAUAUUACGUGAG | -2.13 ± 0.08 | -1.49 ± 0.092
GGCCAGCAAUAUUACGUGGU | -3.49 ± 0.21 | -1.76 ± 0.2
